Data as given in FireProtDB (doi:10.1002/pro.398).

B1: Ovalbumin, P01012 (parent)
chain: MGSIGAASMEFCFDVFKELKVHHANENIFYCPIAIMSALAMVYLGAKDSTRTQINKVVRFDKLPGFGDSIEAQCGTSVNVHSSLRDILNQITKPNDVYSFSLASRLYAEERYPILPEYLQCVKELYRGGLEPINFQTAADQARELINSWVESQTNGIIRNVLQPSSVDSQTAMVLVNAIVFKGLWEKAFKDEDTQAMPFRVTEQESKPVQMMYQIGLFRVASMASEKMKILELPFASGTMSMLVLLPDEVSGLEQLESIINFEKLTEWTSSNVMEERKIKVYLPRMKMEEKYNLTSVLMAMGITDVFSSSANLSGISSAESLKISQAVHAAHAEINEAGREVVGSAEAGVDAASVSEEFRADHPFLFCIKHIATNAVLFFGRCVSP

Variants of: B1
Conditions: Gallus gallus, Thermal, CD, structure 1UHG, whole UniProt chain shown

Variant | Tm (pH 7, Phosphate 10 mM) [°C] | change of melting temperature, mutant - wild type (higher = more stable) (pH 7, Phosphate 10 mM) [°C] | Tm (pH 10, Glycine-NaOH 0.1 M) [°C] | change of melting temperature, mutant - wild type (higher = more stable) (pH 10, Glycine-NaOH 0.1 M) [°C]
S165A S321A | 71.3 | 1.5 | 71.8 | -7.1
S165A | 70.8 | 1 | 75.6 | -3.3
R143A S321A | 70 | 0.2 | 71.2 | -7.7
R143A | 69.8 | 0 | 75.6 | -3.3
S237A | 70.4 | 0.6 | 79.3 | 0.4
S321A | 69.3 | -0.5 | – | –
